# Results reported in patent US20210388087A1 (Chugai, published 2021).
# Molecular target: T1, Human CD137 ECD (human)
# T1 construct: also called 4-1BB
# Assay: single mutant vs template dBBDu183H
# T1 sequence (chain, as listed by the source limits assumed): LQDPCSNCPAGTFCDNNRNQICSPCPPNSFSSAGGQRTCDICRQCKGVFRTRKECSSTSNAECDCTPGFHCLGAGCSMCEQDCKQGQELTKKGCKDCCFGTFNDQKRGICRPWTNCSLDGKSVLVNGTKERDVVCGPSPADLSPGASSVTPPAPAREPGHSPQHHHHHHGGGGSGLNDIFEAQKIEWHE
row,Binder,fold change of affinity
1,"H183/L072 VH S30G (antibody, name in Kabat numbering, V domains shown) VH: QVQLVESGGGLVQPGRSLRLSCAASGFTFGNAWMHWVRQAPGKGLEWVAQIKDKGNAYAAYYAPSVKGRFTISRDDSKNSIYLQMNSLKTEDTAVYYCHYVHYASASTVLPAFGVDAWGQGTTVTVSS VL: DIVMTQSPLSLPVTPGEPASISCQASQELVHMNRNTYLHWYQQKPGQAPRLLIYKVSNRFPGVPDRFSGSGSGTDFTLKISRVEAEDVGVYYCAQGTSVPFTFGQGTKLEIK",0.9 fold
2,"H183/L072 VH S30H (antibody, name in Kabat numbering, V domains shown) VH: QVQLVESGGGLVQPGRSLRLSCAASGFTFHNAWMHWVRQAPGKGLEWVAQIKDKGNAYAAYYAPSVKGRFTISRDDSKNSIYLQMNSLKTEDTAVYYCHYVHYASASTVLPAFGVDAWGQGTTVTVSS VL: DIVMTQSPLSLPVTPGEPASISCQASQELVHMNRNTYLHWYQQKPGQAPRLLIYKVSNRFPGVPDRFSGSGSGTDFTLKISRVEAEDVGVYYCAQGTSVPFTFGQGTKLEIK",0.6 fold
3,"H183/L072 VH S30N (antibody, name in Kabat numbering, V domains shown) VH: QVQLVESGGGLVQPGRSLRLSCAASGFTFNNAWMHWVRQAPGKGLEWVAQIKDKGNAYAAYYAPSVKGRFTISRDDSKNSIYLQMNSLKTEDTAVYYCHYVHYASASTVLPAFGVDAWGQGTTVTVSS VL: DIVMTQSPLSLPVTPGEPASISCQASQELVHMNRNTYLHWYQQKPGQAPRLLIYKVSNRFPGVPDRFSGSGSGTDFTLKISRVEAEDVGVYYCAQGTSVPFTFGQGTKLEIK",0.6 fold
4,"H183/L072 VH S30L (antibody, name in Kabat numbering, V domains shown) VH: QVQLVESGGGLVQPGRSLRLSCAASGFTFLNAWMHWVRQAPGKGLEWVAQIKDKGNAYAAYYAPSVKGRFTISRDDSKNSIYLQMNSLKTEDTAVYYCHYVHYASASTVLPAFGVDAWGQGTTVTVSS VL: DIVMTQSPLSLPVTPGEPASISCQASQELVHMNRNTYLHWYQQKPGQAPRLLIYKVSNRFPGVPDRFSGSGSGTDFTLKISRVEAEDVGVYYCAQGTSVPFTFGQGTKLEIK",0.5 fold
5,"H183/L072 VH S62I (antibody, name in Kabat numbering, V domains shown) VH: QVQLVESGGGLVQPGRSLRLSCAASGFTFSNAWMHWVRQAPGKGLEWVAQIKDKGNAYAAYYAPIVKGRFTISRDDSKNSIYLQMNSLKTEDTAVYYCHYVHYASASTVLPAFGVDAWGQGTTVTVSS VL: DIVMTQSPLSLPVTPGEPASISCQASQELVHMNRNTYLHWYQQKPGQAPRLLIYKVSNRFPGVPDRFSGSGSGTDFTLKISRVEAEDVGVYYCAQGTSVPFTFGQGTKLEIK",0.7 fold
6,"H183/L072 VH S30K (antibody, name in Kabat numbering, V domains shown) VH: QVQLVESGGGLVQPGRSLRLSCAASGFTFKNAWMHWVRQAPGKGLEWVAQIKDKGNAYAAYYAPSVKGRFTISRDDSKNSIYLQMNSLKTEDTAVYYCHYVHYASASTVLPAFGVDAWGQGTTVTVSS VL: DIVMTQSPLSLPVTPGEPASISCQASQELVHMNRNTYLHWYQQKPGQAPRLLIYKVSNRFPGVPDRFSGSGSGTDFTLKISRVEAEDVGVYYCAQGTSVPFTFGQGTKLEIK",0.7 fold
7,"H183/L072 VH S30P (antibody, name in Kabat numbering, V domains shown) VH: QVQLVESGGGLVQPGRSLRLSCAASGFTFPNAWMHWVRQAPGKGLEWVAQIKDKGNAYAAYYAPSVKGRFTISRDDSKNSIYLQMNSLKTEDTAVYYCHYVHYASASTVLPAFGVDAWGQGTTVTVSS VL: DIVMTQSPLSLPVTPGEPASISCQASQELVHMNRNTYLHWYQQKPGQAPRLLIYKVSNRFPGVPDRFSGSGSGTDFTLKISRVEAEDVGVYYCAQGTSVPFTFGQGTKLEIK",0.9 fold
8,"H183/L072 VH S99I (antibody, name in Kabat numbering, V domains shown) VH: QVQLVESGGGLVQPGRSLRLSCAASGFTFSNAWMHWVRQAPGKGLEWVAQIKDKGNAYAAYYAPSVKGRFTISRDDSKNSIYLQMNSLKTEDTAVYYCHYVHYAIASTVLPAFGVDAWGQGTTVTVSS VL: DIVMTQSPLSLPVTPGEPASISCQASQELVHMNRNTYLHWYQQKPGQAPRLLIYKVSNRFPGVPDRFSGSGSGTDFTLKISRVEAEDVGVYYCAQGTSVPFTFGQGTKLEIK",0 fold
9,"H183/L072 VH S30T (antibody, name in Kabat numbering, V domains shown) VH: QVQLVESGGGLVQPGRSLRLSCAASGFTFTNAWMHWVRQAPGKGLEWVAQIKDKGNAYAAYYAPSVKGRFTISRDDSKNSIYLQMNSLKTEDTAVYYCHYVHYASASTVLPAFGVDAWGQGTTVTVSS VL: DIVMTQSPLSLPVTPGEPASISCQASQELVHMNRNTYLHWYQQKPGQAPRLLIYKVSNRFPGVPDRFSGSGSGTDFTLKISRVEAEDVGVYYCAQGTSVPFTFGQGTKLEIK",0.9 fold
10,"H183/L072 VH S62M (antibody, name in Kabat numbering, V domains shown) VH: QVQLVESGGGLVQPGRSLRLSCAASGFTFSNAWMHWVRQAPGKGLEWVAQIKDKGNAYAAYYAPMVKGRFTISRDDSKNSIYLQMNSLKTEDTAVYYCHYVHYASASTVLPAFGVDAWGQGTTVTVSS VL: DIVMTQSPLSLPVTPGEPASISCQASQELVHMNRNTYLHWYQQKPGQAPRLLIYKVSNRFPGVPDRFSGSGSGTDFTLKISRVEAEDVGVYYCAQGTSVPFTFGQGTKLEIK",0.8 fold
11,"H183/L072 VH S30M (antibody, name in Kabat numbering, V domains shown) VH: QVQLVESGGGLVQPGRSLRLSCAASGFTFMNAWMHWVRQAPGKGLEWVAQIKDKGNAYAAYYAPSVKGRFTISRDDSKNSIYLQMNSLKTEDTAVYYCHYVHYASASTVLPAFGVDAWGQGTTVTVSS VL: DIVMTQSPLSLPVTPGEPASISCQASQELVHMNRNTYLHWYQQKPGQAPRLLIYKVSNRFPGVPDRFSGSGSGTDFTLKISRVEAEDVGVYYCAQGTSVPFTFGQGTKLEIK",0.8 fold
12,"H183/L072 VH S62L (antibody, name in Kabat numbering, V domains shown) VH: QVQLVESGGGLVQPGRSLRLSCAASGFTFSNAWMHWVRQAPGKGLEWVAQIKDKGNAYAAYYAPLVKGRFTISRDDSKNSIYLQMNSLKTEDTAVYYCHYVHYASASTVLPAFGVDAWGQGTTVTVSS VL: DIVMTQSPLSLPVTPGEPASISCQASQELVHMNRNTYLHWYQQKPGQAPRLLIYKVSNRFPGVPDRFSGSGSGTDFTLKISRVEAEDVGVYYCAQGTSVPFTFGQGTKLEIK",0.9 fold
13,"H183/L072 VH S30R (antibody, name in Kabat numbering, V domains shown) VH: QVQLVESGGGLVQPGRSLRLSCAASGFTFRNAWMHWVRQAPGKGLEWVAQIKDKGNAYAAYYAPSVKGRFTISRDDSKNSIYLQMNSLKTEDTAVYYCHYVHYASASTVLPAFGVDAWGQGTTVTVSS VL: DIVMTQSPLSLPVTPGEPASISCQASQELVHMNRNTYLHWYQQKPGQAPRLLIYKVSNRFPGVPDRFSGSGSGTDFTLKISRVEAEDVGVYYCAQGTSVPFTFGQGTKLEIK",0.7 fold
14,"H183/L072 VH S30Q (antibody, name in Kabat numbering, V domains shown) VH: QVQLVESGGGLVQPGRSLRLSCAASGFTFQNAWMHWVRQAPGKGLEWVAQIKDKGNAYAAYYAPSVKGRFTISRDDSKNSIYLQMNSLKTEDTAVYYCHYVHYASASTVLPAFGVDAWGQGTTVTVSS VL: DIVMTQSPLSLPVTPGEPASISCQASQELVHMNRNTYLHWYQQKPGQAPRLLIYKVSNRFPGVPDRFSGSGSGTDFTLKISRVEAEDVGVYYCAQGTSVPFTFGQGTKLEIK",0.7 fold
15,"H183/L072 VH S62A (antibody, name in Kabat numbering, V domains shown) VH: QVQLVESGGGLVQPGRSLRLSCAASGFTFSNAWMHWVRQAPGKGLEWVAQIKDKGNAYAAYYAPAVKGRFTISRDDSKNSIYLQMNSLKTEDTAVYYCHYVHYASASTVLPAFGVDAWGQGTTVTVSS VL: DIVMTQSPLSLPVTPGEPASISCQASQELVHMNRNTYLHWYQQKPGQAPRLLIYKVSNRFPGVPDRFSGSGSGTDFTLKISRVEAEDVGVYYCAQGTSVPFTFGQGTKLEIK",0.7 fold
16,"H183/L072 VH S62P (antibody, name in Kabat numbering, V domains shown) VH: QVQLVESGGGLVQPGRSLRLSCAASGFTFSNAWMHWVRQAPGKGLEWVAQIKDKGNAYAAYYAPPVKGRFTISRDDSKNSIYLQMNSLKTEDTAVYYCHYVHYASASTVLPAFGVDAWGQGTTVTVSS VL: DIVMTQSPLSLPVTPGEPASISCQASQELVHMNRNTYLHWYQQKPGQAPRLLIYKVSNRFPGVPDRFSGSGSGTDFTLKISRVEAEDVGVYYCAQGTSVPFTFGQGTKLEIK",0.7 fold
17,"H183/L072 VH S99A (antibody, name in Kabat numbering, V domains shown) VH: QVQLVESGGGLVQPGRSLRLSCAASGFTFSNAWMHWVRQAPGKGLEWVAQIKDKGNAYAAYYAPSVKGRFTISRDDSKNSIYLQMNSLKTEDTAVYYCHYVHYAAASTVLPAFGVDAWGQGTTVTVSS VL: DIVMTQSPLSLPVTPGEPASISCQASQELVHMNRNTYLHWYQQKPGQAPRLLIYKVSNRFPGVPDRFSGSGSGTDFTLKISRVEAEDVGVYYCAQGTSVPFTFGQGTKLEIK",1.4 fold
18,"H183/L072 VH S30I (antibody, name in Kabat numbering, V domains shown) VH: QVQLVESGGGLVQPGRSLRLSCAASGFTFINAWMHWVRQAPGKGLEWVAQIKDKGNAYAAYYAPSVKGRFTISRDDSKNSIYLQMNSLKTEDTAVYYCHYVHYASASTVLPAFGVDAWGQGTTVTVSS VL: DIVMTQSPLSLPVTPGEPASISCQASQELVHMNRNTYLHWYQQKPGQAPRLLIYKVSNRFPGVPDRFSGSGSGTDFTLKISRVEAEDVGVYYCAQGTSVPFTFGQGTKLEIK",0.6 fold
19,"H183/L072 VH S30V (antibody, name in Kabat numbering, V domains shown) VH: QVQLVESGGGLVQPGRSLRLSCAASGFTFVNAWMHWVRQAPGKGLEWVAQIKDKGNAYAAYYAPSVKGRFTISRDDSKNSIYLQMNSLKTEDTAVYYCHYVHYASASTVLPAFGVDAWGQGTTVTVSS VL: DIVMTQSPLSLPVTPGEPASISCQASQELVHMNRNTYLHWYQQKPGQAPRLLIYKVSNRFPGVPDRFSGSGSGTDFTLKISRVEAEDVGVYYCAQGTSVPFTFGQGTKLEIK",0.8 fold
20,"H183/L072 VH S30W (antibody, name in Kabat numbering, V domains shown) VH: QVQLVESGGGLVQPGRSLRLSCAASGFTFWNAWMHWVRQAPGKGLEWVAQIKDKGNAYAAYYAPSVKGRFTISRDDSKNSIYLQMNSLKTEDTAVYYCHYVHYASASTVLPAFGVDAWGQGTTVTVSS VL: DIVMTQSPLSLPVTPGEPASISCQASQELVHMNRNTYLHWYQQKPGQAPRLLIYKVSNRFPGVPDRFSGSGSGTDFTLKISRVEAEDVGVYYCAQGTSVPFTFGQGTKLEIK",0.5 fold
21,"H183/L072 VH S30Y (antibody, name in Kabat numbering, V domains shown) VH: QVQLVESGGGLVQPGRSLRLSCAASGFTFYNAWMHWVRQAPGKGLEWVAQIKDKGNAYAAYYAPSVKGRFTISRDDSKNSIYLQMNSLKTEDTAVYYCHYVHYASASTVLPAFGVDAWGQGTTVTVSS VL: DIVMTQSPLSLPVTPGEPASISCQASQELVHMNRNTYLHWYQQKPGQAPRLLIYKVSNRFPGVPDRFSGSGSGTDFTLKISRVEAEDVGVYYCAQGTSVPFTFGQGTKLEIK",0.5 fold
